This note sets out measurements from the Human Domainome abundance scans (Beltran et al. 2025).

First the molecules themselves.
B1: Cell division cycle and apoptosis regulator protein 1, residues 625 to 674; numbered along this chain, Q8IX12 (parent)
chain: ISTPTHWSKLDPKTMKVNDLRKELESRALSSKGLKSQLIARLTKQLKVEE

± gives the uncertainty stated by the source.

This data set covers variants of B1. Nature of the data set: abundance fitness (aPCA) (normalised: wild type 0, dead -1); higher = more abundant; growth selection in yeast, the domain comes from the species named. The settings on record: Homo sapiens.
For the variant ISTPTHWSKLDPKTMKVNDLRKELESRALSSKGLKSQMIARLTKQLKVEE [L38M], the abundance fitness was -0.049 ± 0.052.

On to ISTPTHWSKLDPKTMKVNDLRKELESRALSSKGLKSQPIARLTKQLKVEE [L38P], for which the abundance fitness was -0.634 ± 0.046. Take ISTPTHWSKLDPKTMKVNDLRKELESRALSSKGLKSQHIARLTKQLKVEE [L38H]: the abundance fitness is -0.628 ± 0.07. For the variant ISTPTHWSKLDPKTMKVNDLRKELESRALSSKGLKSQEIARLTKQLKVEE [L38E], the abundance fitness was -0.423 ± 0.035. The same measure for ISTPTHWSKLDPKTMKVNDLRKELESRALSSKGLKSQFIARLTKQLKVEE [L38F]: -0.866 ± 0.085; for ISTPTHWSKLDPKTMKVNDLRKELESRALSSKGLKSQGIARLTKQLKVEE [L38G]: -0.603 ± 0.034. With ISTPTHWSKLDPKTMKVNDLRKELESRALSSKGLKSQKIARLTKQLKVEE [L38K], the abundance fitness was -0.324 ± 0.046. Regarding ISTPTHWSKLDPKTMKVNDLRKELESRALSSKGLKSQYIARLTKQLKVEE [L38Y], the abundance fitness is -0.832 ± 0.075. For the variant ISTPTHWSKLDPKTMKVNDLRKELESRALSSKGLKSQAIARLTKQLKVEE [L38A], the abundance fitness is -0.534 ± 0.03. Take ISTPTHWSKLDPKTMKVNDLRKELESRALSSKGLKSQSIARLTKQLKVEE [L38S]: the abundance fitness was -0.592 ± 0.044. With ISTPTHWSKLDPKTMKVNDLRKELESRALSSKGLKSQQIARLTKQLKVEE [L38Q], the abundance fitness is -0.366 ± 0.046.

On to ISTPTHWSKLDPKTMKVNDLRKELESRALSSKGLKSQTIARLTKQLKVEE [L38T], for which the abundance fitness is -0.63 ± 0.047. Turning to ISTPTHWSKLDPKTMKVNDLRKELESRALSSKGLKSQRIARLTKQLKVEE [L38R], the abundance fitness is -0.583 ± 0.046. Regarding ISTPTHWSKLDPKTMKVNDLRKELESRALSSKGLKSQCIARLTKQLKVEE [L38C], the abundance fitness was -0.477 ± 0.066.

As for ISTPTHWSKLDPKTMKVNDLRKELESRALSSKGLKSQDIARLTKQLKVEE [L38D], the abundance fitness is -0.332 ± 0.045. As to ISTPTHWSKLDPKTMKVNDLRKELESRALSSKGLKSQNIARLTKQLKVEE [L38N], the abundance fitness is -0.666 ± 0.086. Consider ISTPTHWSKLDPKTMKVNDLRKELESRALSSKGLKSQLRARLTKQLKVEE [I39R], for which the abundance fitness is -0.013 ± 0.034. In the case of ISTPTHWSKLDPKTMKVNDLRKELESRALSSKGLKSQLPARLTKQLKVEE [I39P], the abundance fitness is -0.366 ± 0.066. The same measure for ISTPTHWSKLDPKTMKVNDLRKELESRALSSKGLKSQLYARLTKQLKVEE [I39Y]: -0.279 ± 0.042; for ISTPTHWSKLDPKTMKVNDLRKELESRALSSKGLKSQLWARLTKQLKVEE [I39W]: -0.573 ± 0.054; for ISTPTHWSKLDPKTMKVNDLRKELESRALSSKGLKSQLMARLTKQLKVEE [I39M]: -0.1 ± 0.039. ISTPTHWSKLDPKTMKVNDLRKELESRALSSKGLKSQLNARLTKQLKVEE [I39N]: the abundance fitness was -0.26 ± 0.049.

Regarding ISTPTHWSKLDPKTMKVNDLRKELESRALSSKGLKSQLQARLTKQLKVEE [I39Q], the abundance fitness is -0.102 ± 0.062. As to ISTPTHWSKLDPKTMKVNDLRKELESRALSSKGLKSQLLARLTKQLKVEE [I39L], the abundance fitness is -0.183 ± 0.04. For the variant ISTPTHWSKLDPKTMKVNDLRKELESRALSSKGLKSQLAARLTKQLKVEE [I39A], the abundance fitness was -0.145 ± 0.042. Consider ISTPTHWSKLDPKTMKVNDLRKELESRALSSKGLKSQLCARLTKQLKVEE [I39C], for which the abundance fitness is -0.059 ± 0.062. The same measure for ISTPTHWSKLDPKTMKVNDLRKELESRALSSKGLKSQLDARLTKQLKVEE [I39D]: -0.266 ± 0.035; for ISTPTHWSKLDPKTMKVNDLRKELESRALSSKGLKSQLKARLTKQLKVEE [I39K]: 0.016 ± 0.048; for ISTPTHWSKLDPKTMKVNDLRKELESRALSSKGLKSQLFARLTKQLKVEE [I39F]: -0.518 ± 0.093. Take ISTPTHWSKLDPKTMKVNDLRKELESRALSSKGLKSQLTARLTKQLKVEE [I39T]: the abundance fitness was -0.049 ± 0.029.

For the variant ISTPTHWSKLDPKTMKVNDLRKELESRALSSKGLKSQLEARLTKQLKVEE [I39E], the abundance fitness is -0.102 ± 0.047.

Take ISTPTHWSKLDPKTMKVNDLRKELESRALSSKGLKSQLVARLTKQLKVEE [I39V]: the abundance fitness amounted to 0.022 ± 0.046. With ISTPTHWSKLDPKTMKVNDLRKELESRALSSKGLKSQLGARLTKQLKVEE [I39G], the abundance fitness is -0.286 ± 0.035. On to ISTPTHWSKLDPKTMKVNDLRKELESRALSSKGLKSQLSARLTKQLKVEE [I39S], for which the abundance fitness is -0.205 ± 0.048. As for ISTPTHWSKLDPKTMKVNDLRKELESRALSSKGLKSPLIARLTKQLKVEE [Q37P], the abundance fitness is -0.231 ± 0.054. Take ISTPTHWSKLDPKTMKVNDLRKELESRALSSKGLKSLLIARLTKQLKVEE [Q37L]: the abundance fitness was -0.178 ± 0.03. For the variant ISTPTHWSKLDPKTMKVNDLRKELESRALSSKGLKSYLIARLTKQLKVEE [Q37Y], the abundance fitness was -0.274 ± 0.042. The same measure for ISTPTHWSKLDPKTMKVNDLRKELESRALSSKGLKSELIARLTKQLKVEE [Q37E]: 0.058 ± 0.051. Next, ISTPTHWSKLDPKTMKVNDLRKELESRALSSKGLKSVLIARLTKQLKVEE [Q37V]: 0.002 ± 0.033. As for ISTPTHWSKLDPKTMKVNDLRKELESRALSSKGLKSGLIARLTKQLKVEE [Q37G], the abundance fitness was -0.253 ± 0.038. The same measure for ISTPTHWSKLDPKTMKVNDLRKELESRALSSKGLKSTLIARLTKQLKVEE [Q37T]: -0.093 ± 0.032; for ISTPTHWSKLDPKTMKVNDLRKELESRALSSKGLKSMLIARLTKQLKVEE [Q37M]: -0.042 ± 0.034. Turning to ISTPTHWSKLDPKTMKVNDLRKELESRALSSKGLKSKLIARLTKQLKVEE [Q37K], the abundance fitness is -0.108 ± 0.037. The same measure for ISTPTHWSKLDPKTMKVNDLRKELESRALSSKGLKSWLIARLTKQLKVEE [Q37W]: -0.459 ± 0.054; for ISTPTHWSKLDPKTMKVNDLRKELESRALSSKGLKSHLIARLTKQLKVEE [Q37H]: -0.455 ± 0.11; for ISTPTHWSKLDPKTMKVNDLRKELESRALSSKGLKSRLIARLTKQLKVEE [Q37R]: -0.168 ± 0.032. Next, ISTPTHWSKLDPKTMKVNDLRKELESRALSSKGLKSSLIARLTKQLKVEE [Q37S]: -0.061 ± 0.035; ISTPTHWSKLDPKTMKVNDLRKELESRALSSKGLKSFLIARLTKQLKVEE [Q37F]: -0.256 ± 0.047; ISTPTHWSKLDPKTMKVNDLRKELESRALSSKGLKSILIARLTKQLKVEE [Q37I]: -0.513 ± 0.056. The same measure for ISTPTHWSKLDPKTMKVNDLRKELESRALSSKGLKSQLIARLEKQLKVEE [T43E]: -0.117 ± 0.037. As to ISTPTHWSKLDPKTMKVNDLRKELESRALSSKGLKSQLIARLDKQLKVEE [T43D], the abundance fitness is -0.097 ± 0.058.

Take ISTPTHWSKLDPKTMKVNDLRKELESRALSSKGLKSQLIARLAKQLKVEE [T43A]: the abundance fitness is -0.01 ± 0.047.
